Reference: patent EP4782465A1 (Shanghai Mabgen Biotech Ltd., dated 2026)

Target: Insulin receptor of C2C12 mouse myoblasts (mouse, UniProt P15208 28-1372)
Test: cell-based or functional assay

Sequence of Insulin receptor of C2C12 mouse myoblasts (P15208 28-1372): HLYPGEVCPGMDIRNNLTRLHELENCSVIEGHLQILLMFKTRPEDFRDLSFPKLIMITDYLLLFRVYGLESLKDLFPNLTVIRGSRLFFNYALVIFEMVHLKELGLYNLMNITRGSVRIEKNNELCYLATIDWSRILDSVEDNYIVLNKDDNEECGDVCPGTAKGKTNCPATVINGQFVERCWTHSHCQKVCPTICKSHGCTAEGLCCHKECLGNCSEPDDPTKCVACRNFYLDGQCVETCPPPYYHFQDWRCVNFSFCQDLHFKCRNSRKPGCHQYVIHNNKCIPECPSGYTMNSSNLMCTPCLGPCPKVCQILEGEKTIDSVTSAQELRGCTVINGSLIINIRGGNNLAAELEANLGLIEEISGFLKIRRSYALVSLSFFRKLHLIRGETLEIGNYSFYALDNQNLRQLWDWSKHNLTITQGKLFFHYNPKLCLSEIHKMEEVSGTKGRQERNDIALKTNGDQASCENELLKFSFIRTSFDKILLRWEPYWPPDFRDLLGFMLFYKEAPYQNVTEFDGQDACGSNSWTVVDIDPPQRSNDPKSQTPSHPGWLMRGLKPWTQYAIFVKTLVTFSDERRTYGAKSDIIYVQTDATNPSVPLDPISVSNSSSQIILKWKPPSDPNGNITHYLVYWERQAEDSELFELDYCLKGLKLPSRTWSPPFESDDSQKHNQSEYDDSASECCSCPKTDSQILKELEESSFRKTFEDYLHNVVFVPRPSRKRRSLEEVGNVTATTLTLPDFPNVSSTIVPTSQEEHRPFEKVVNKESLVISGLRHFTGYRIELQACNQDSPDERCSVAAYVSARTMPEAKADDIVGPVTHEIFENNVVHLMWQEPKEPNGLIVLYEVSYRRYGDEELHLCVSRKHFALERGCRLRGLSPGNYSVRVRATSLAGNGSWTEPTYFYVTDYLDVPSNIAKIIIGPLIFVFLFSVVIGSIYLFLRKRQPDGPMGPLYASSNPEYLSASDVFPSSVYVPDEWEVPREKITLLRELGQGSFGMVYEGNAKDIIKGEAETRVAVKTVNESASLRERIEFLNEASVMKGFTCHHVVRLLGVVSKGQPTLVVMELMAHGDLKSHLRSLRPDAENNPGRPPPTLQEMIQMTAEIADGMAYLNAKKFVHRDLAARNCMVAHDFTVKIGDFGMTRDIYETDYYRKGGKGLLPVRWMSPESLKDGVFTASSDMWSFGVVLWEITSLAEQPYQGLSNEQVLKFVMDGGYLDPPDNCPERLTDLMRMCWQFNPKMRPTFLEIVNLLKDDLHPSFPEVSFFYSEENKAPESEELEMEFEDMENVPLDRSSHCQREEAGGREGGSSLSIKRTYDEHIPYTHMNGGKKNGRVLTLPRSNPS

AKT phosphorylation activity (EC50): 490 nM
B1: Fusion protein 1 (insulin analog 1 + L2 + IgG2 Fc1) (Fc fusion)
chain: FVNQHLCGEHLVEALYLVCGERGFHYGGGGGGSGGGGGIVEQCCESICSLEQLENYCGGGGGQGGGGQGGGGQGGGGGECPPCPAPPVAGPSVFLFPPKPKDTLMISRTPEVTCVVVDVSHEDPEVQFNWYVDGVEVHNAKTKPREEQFNSTFRVVSVLTVVHQDWLNGKEYKCKVSNKGLPAPIEKTISKTKGQPREPQVYTLPPSREEMTKNQVSLTCLVKGFYPSDIAVEWESNGQPENNYKTTPPMLDSDGSFFLYSKLTVDKSRWQQGNVFSCSVMHEALHNHYTQKSLSLSPG
